We go through 20 sequences from the nanobody polyreactivity screen of Harvey et al. (2022).

This data set is described as follows: yeast display, Sf9 membrane polyspecificity reagent, FACS + sequencing; frameworks hold sequencing errors. Summed up: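 In a synthetic yeast display library (Saccharomyces cerevisiae BJ5465), nanobody expression was induced with galactose for 36–48 hours. FACS gates were set low and high (top ~1%) using anti-HA fluorescence for expression and streptavidin fluorescence for binding of the Sf9 membrane reagent. Each polyreactivity label is drawn from the gate of origin.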
Take “QVQLVESGGGLVQAGGSLRLSCAASGSIFTPYAMGWYRQAPGKESELVAAIRSGTSTNYADSVKGRFTISRDNAKNTVYLQMNSLKPEDTAVYYCAAVYWSRFYVRYDYWGQGTQVTVSS”: the “polyreactivity (PSR sort gate)” value was “high polyreactivity”.
With “QVQLVESGGGLVQAGGSLRLSCAASGFIFPGYAMGSYRQAPGKERELVAAISRRGGRTYYADSVKGRFTISRDNAKNTVYLQMNSLKPEDTAVYYCAAVVQSTQYICDYWGQGTQVTVSS”, the “polyreactivity (PSR sort gate)” value is reported as “high polyreactivity”.
As for “QVQLVESGGGLVQAGGSLRLSCAASGFTFTWYAMGWYRQAPGKERELVAAISSGGGRTYYADSVKGRFTISRDNAKNTVYLQMNSLKPEDTAVYYCNAVAGGVYVDNGYDYWGQGTQVTVSS”, the “polyreactivity (PSR sort gate)” value is on record as “high polyreactivity”.
Consider “QVQHVESVGGLLQAGCSLRLSCAPSGRIFGENAIGWYRQAPGKEREFLAVISISDASTYYADSVKGRFTISRDNAKNTGYLQMNSLKPDDTAVYYCAADLTDFLYVASDYWGQGTQVTVSS”, for which the “polyreactivity (PSR sort gate)” value was “low polyreactivity”.
For the sequence “QVQLVESVGGLVQAGGSLRLSCAASGRIFARYAMGWYRQAPGKERELVAAITKSVGSTYYADSVKGRFTISRDNAKKTVYLQMNSLKPEDTAVYYCARVVADSEYDYWGQGTQVTVSS”, the “polyreactivity (PSR sort gate)” value is reported as “high polyreactivity”.
For the sequence “QVQLVESGGGLVQAGGSLRLSCAASGRIFYWNAMGWYRQAPGKERELVAVITKSGGSTYYADSVKGRFTISRDNAKNTVYLQMNSLKPEDTAVYYCAKSLYVQGYYIYDWGQGTQVTVSS”, the “polyreactivity (PSR sort gate)” value is listed as “high polyreactivity”.
Take “QVQLVESGGGLVQAGGSLRLSCAASGRIFPYYAMGWYRQAPGKERELVAAISRIGGRTYYADSVKGRFTISRDNAKNTVYLQMNSLKPEDTAVYYCAAGYGGTFNCGQGTQVTVSS”: the “polyreactivity (PSR sort gate)” value is reported as “high polyreactivity”.
With “QVKLVESAGGLVQAGGSLRLSCPASGIIFGLYTMGWYRQAPGKERELVAAISDSGGRTYYADSVKGRFTISRDNVKNTVYFQMNSRKPADTAVYYCATRWPNYGGYYYWGLGTQVTVSS”, the “polyreactivity (PSR sort gate)” value is recorded as “high polyreactivity”.
As to “QVQLVESGGGLVQSGGSLRLSGAASGSTYGLNAMGWYRQAPRKEMELVAAITRSDITNYADSVNGRFRISRDNAKNTVYLQMNSLKPEDTAVYYCNKTPDRHRRYFGYGYWGQGTQVTVSS”, the “polyreactivity (PSR sort gate)” value is given as “low polyreactivity”.
As to “QVQLVESGGGLVQAGGSLRLICAASGRTFGVYAMGWYRQAPGKERELVADITSGGGTYYADSVKGRFTILRDNAKNTFYLQMNSLKPEDTAVYYFAARKWYYAYDYWGQGTQVTVSS”, the “polyreactivity (PSR sort gate)” value is recorded as “high polyreactivity”.
As for “QVQLVESGGGLVQAGGSLRLSCAASGGTLYRYAMGWYRQAPGKERELVAGISSSGGRTYYADSVKGRFTISRDNAKNTVYLQMNSLKPEDTAVYYCAKYWVSSYDYWGQGNQVTVSS”, the “polyreactivity (PSR sort gate)” value is “high polyreactivity”.
With “QVQLVESGGGLVQAGGSLRLICAASGSIFGYYAMGWYRQAPGKERELVAGITNSGDTNYADSVKGRFTISRDNAKNTVYLQMNSLKPEDTAVYYCAADGSYQYYYWGQGTQVTVSS”, the “polyreactivity (PSR sort gate)” value is listed as “low polyreactivity”.
In the case of “QVQLQESGAGLVQAGGSLRLSCAASGSISAVGAMCWYRQAPGKEREFAASVNWATNTNYADSVKGRFTISRDNAKNTLYLQMNSLKPEDTAVYYCAVLPDWETRHDYWGHGTQVTVSS”, the “polyreactivity (PSR sort gate)” value is listed as “low polyreactivity”.
For “QVQLVESGGGLVQAGGSLRLSCAASGRTFTRYAMGWYRQAPGKERELVAAITSSGRTYYADSVKGRFTISRDNAKNTVYLQMNSLKPEDTAVYYCAARGVYVKYYYWGQGTQVTVSS”, the “polyreactivity (PSR sort gate)” value is reported as “high polyreactivity”.
Turning to “QVQLVESGGGLVQAGGSLRLSCAASGIMFTSNTMGSYRQAPGKEREFVASINWNGSSTYADSVKGRFTISRDNAKNTDYLQMNSLKPEDTAVYYCNADYNRNSVQFSLYDYWGQGTQVTVSS”, the “polyreactivity (PSR sort gate)” value is recorded as “low polyreactivity”.
Consider “QVQLVESGGGLVQAGGSLRLSCAASGITFQRYAMGWYRQAPGKVRELVAAITRRGGSTYYADSVKGRFTISRDNAKNTVYLQMNSLKPEDTAVYYCAADLFFKARGYDYWGQGTQVTVSS”, for which the “polyreactivity (PSR sort gate)” value is recorded as “high polyreactivity”.
Turning to “QVQLVESGGGLVQAGGSRRLSCAASGSIFDYYVMGWYRQAPVKERELVAAISWSGASTYSADSVKGRFTISRDNAKNTVYLQMNSLKPEDTAVYYCAADYGVNTLIDYDYWGQGTQVTVSS”, the “polyreactivity (PSR sort gate)” value is recorded as “low polyreactivity”.
Consider “QVQLVESGGGLVQAGGSLRLSCAASGFTLGVYTMGGSRQAPGKVRELVARITSGGRTYSADSVKGRFTISRDNAKNSVYLQMNSLQPEDTAVYYCAKVDGRRTYYTVHRYERDYWGQGTQVTVSS”, for which the “polyreactivity (PSR sort gate)” value is “low polyreactivity”.
The entry for “QVQLVESGGGLVQAGGSLRLSCAASGRIFVDYDMGWYRPAPGKERELVATISSGGSTNYADSVKGRFTISRDNAKNTVYLQMNSLKPEDTAVYYCAASSYSTSYIRGDYWGQGTQVTVSS” is “low polyreactivity”; for “QVQLVESGGGLVQAGGSLRLSCAASGITFKYYAMGWYRQAPGKERELVAAITRGGSTYYADSVKGRFTISRDNAKNTVYLQMNSLKPEDTAVYYCNKARTYELYWGQGTQVTVSS” it is “high polyreactivity”.
